Experimental data from US20150376269A1 (Regeneron, published 2015).
Where a chain is given by its changes, count along the chain named. Numbers in names are those of the source.

T1: serum resistance-associated protein (SRA) from Trypanosoma brucei rhodesiense, recombinant SRA (SEQ ID NO: … (Trypanosoma brucei rhodesiense, UniProt O96637 31-274))
T1 construct: also called SRA protein
T1 sequence: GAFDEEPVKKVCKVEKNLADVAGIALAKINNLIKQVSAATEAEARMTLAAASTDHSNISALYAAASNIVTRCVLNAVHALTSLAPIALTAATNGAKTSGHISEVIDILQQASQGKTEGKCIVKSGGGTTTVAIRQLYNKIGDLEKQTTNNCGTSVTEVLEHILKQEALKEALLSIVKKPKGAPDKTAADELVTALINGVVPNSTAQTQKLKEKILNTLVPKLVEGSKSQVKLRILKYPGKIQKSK

T2: SRA.mmh
T2 construct: also called SRA.mmh (CHO)
T2 antigen: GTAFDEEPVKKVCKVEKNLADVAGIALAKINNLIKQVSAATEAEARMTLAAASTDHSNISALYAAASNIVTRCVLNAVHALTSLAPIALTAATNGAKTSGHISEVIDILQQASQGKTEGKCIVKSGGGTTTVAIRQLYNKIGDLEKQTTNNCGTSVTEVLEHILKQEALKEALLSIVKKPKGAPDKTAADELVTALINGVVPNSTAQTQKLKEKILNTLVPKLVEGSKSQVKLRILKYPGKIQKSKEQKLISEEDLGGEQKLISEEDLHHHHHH

B1: H1H10026P (antibody, V domains shown)
VH: QVQLVESGGGVVQPGRSLRLSCEASGFTFSIYGMHWVRQAPGKGLEWVAVISYDGTNRYYADSVKGRFTISRDNSKNTLYLQMNSLRAEDTAVYYCAKVNIWNFLFDYWGQGTLVTVSS
VL: EIVLTQSPGTLSLSPGERATLSCRASQSVSGNYLAWYQQKPGQAPRLLIYGPSSRATGIPDRFSGSGSGTDFTLTISRLEPEDFAVYYCQQYGTSLTFGGGTKVEIK
notes: Fully human antibody with human IgG1 Fc (prefix H1H)
B2: H1H10045P (antibody, V domains shown)
VH: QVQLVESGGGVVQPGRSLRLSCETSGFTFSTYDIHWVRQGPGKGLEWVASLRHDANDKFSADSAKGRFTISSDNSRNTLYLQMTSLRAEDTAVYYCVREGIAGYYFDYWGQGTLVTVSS
VL: DIQMTQSPSFVSASVGDRVTISCRASQDIHTWLAWYQQKPGKAPNLLIYAASGLHSRAPSRFSGSGSGTDFTLTISSLQPEDFATYYCQKADRFPFTFGPGTKVDIK
notes: as for B1
B3: H1H10064P (antibody, V domains shown)
VH: QVQLVQSGAEVKKPGSSVKVSCKASGGSFSSNVFSWVRQAPGQGLEWMGGIIPIFGSANYAQKFQGRVTITTDESTTTAYMELSSLRSEDTAVYYCAIGGTGPSGYNWNYGAFYIWGQGTMVTVSS
VL: DIQMTQSPSSLSASVGDRVTITCRASQGIRNDLGWYQQKPGIAPKRLIYAASSLQSGVPSRFSGSGSGTEFTLTISSLQPEDFATYYCLQHNSYPYTFGQGTKLEIK
notes: as for B1
B4: H2aM10200N (antibody, V domains shown)
VH: QVQLVQSGAEVKKPGSSVKVSCKASGGTFSSYAISWVRQAPGQGLEWMGGIIPFFGTATYAQKFQGRVTITTDESTRTVYMELSSLRYEDTAVYYCARWYSGYGGDFDYWGQGTLVTVSS
VL: B3 VL with D1A, Y36F, I42K, R46L, E70D, T74S, H91D, N92Y, Y96R, L104V
notes: Hybridoma-derived chimeric antibody, human variable domains and mouse constant domains (mouse Fc, prefix H2aM); also called H2M10200N
B5: H1H10031P (antibody, V domains shown)
VH: EVQLVESGGNVVRPGGSLRLSCSGSGFAFENYGMSWVRQGPGKGLEWVSNINWNGGSLNYVDSVKGRFTISRDNAKNSLYLQMNSLRAEDTALYYCARVIVYGMDVWGQGTTVTVSS
VL: B3 VL with D32G, Y36F, I42K, A51T, H91S, Y96W, L104V
notes: as for B1
B6: H1H10056P (antibody, V domains shown)
VH: QVQLVESGGGVVQPGRSLRLSCSASGFTFSLYGMHWIRQAPGKGLEWVAVISYDGSNTYYGDSVKGRFTISRDNSKNTLYLQMNSLRTEDTAIYYCAKVYNWNYLFDYWGQGTLVTVSS
VL: EIVLTQSPDTLSLSPGERATLSCRASQNVNNNFLAWYQQKPGQAPRLLIYGASSRATDIPERFSGSGSGTDFTLTISRLEPEDFAVYYCLHYVNSRTFGQGTKVEIK
notes: as for B1
B7: H1H10027P (antibody, V domains shown)
VH: EVQLVESGGALVQPGRSLTLSCAASGFTFDDYTMHWVRQTPGKGLEWVSGILWNSDNLVYADSVKGRFTISRDNAKNSLYLQMNSLRVEDTALYYCTKEIDYLTLGGNAFDVWGQGTMVTVSS
VL: DIQMTQSPSTLSASVGDRITITCRASQNINYWLAWYQQKPGKAPKLLIYKASSLAGGVPSRFSGSGSGTDFTLTINSLQPDDFATYYCQKYNTYSLNFGGGTKVEIK
notes: as for B1
B8: H1H10058P (antibody, V domains shown)
VH: EVQLVESGGGLVQPGGSLRLSCAASGFTFNDFFMSWVRQAPGKGLEWVANLNQDGSERHYVDSVKGRFTISRDNAKNSLSLQMNSLRVEDTAVYYCAREGGDSWGQGTLVTVSS
VL: DIVMTQSPDSLAVSLGERVTINCKSSQSILYSANNKDYLAWFHQKPGQPPKLLIYWASIRESGVPDRISGSGSGTDFTLTISSLQAEDVAVYYCQQYYLFPPTFGQGTKVEIK
notes: as for B1
B9: H2aM10201N (antibody, V domains shown)
VH: QVQLLESGGGVVQPGKSLRLSCVASGSIFSIYGMNWVRQAPGKGLEWVASVSSDGSAKFYADSVKGRFTISRDNSNDTLFLQMTSLRAEDTAVYYCAKTLWNYLFDSWGQGTLVTVSS
VL: ENVLTQSPDTLSLSPGERATLSCRASQSITSNYLAWYQQKPGQTPRLLISFTSRRATGIPDRFSGSGSGTVFTLTISRLEPEDFAVYYCQQYGTSLTFGGGAKVEIR
notes: Chimeric antibody, human variable domains and mouse constant domains (mouse Fc, prefix H2aM); also called H2M10201N

How the values were obtained:
[1] = target: T1, serum resistance-associated protein …; test: SPR, mAb captured, pH 4.5, 25C; competitor biotin-mutant apoL1 peptide
[2] = target: T1, serum resistance-associated protein …; test: SPR, mAb captured, 25C, pH 7.4
Experimental: (§1) Equilibrium dissociation constants (KD) values for SRA binding to selected purified anti-SRA monoclonal antibodies were determined using a real-time surface plasmon resonance biosensor assay on a Biacore T200 instrument. […] SRA binding to the captured monoclonal antibodies was monitored for 4 min while the dissociation of mAb bound SRA was monitored for 7 min. Two different assays formats were adopted to characterize kinetics of SRA binding—(i) regular kinetics and (ii) pH4.5 chase. Regular kinetics experiments were performed using pH7.4 buffer as the running buffer and both the association and dissociation was performed in pH7.4. For the chase format, association and dissociation were performed in pH7.4 buffer and pH4.5 buffer respectively.
(§2) Kinetic association (kₐ) and dissociation (kd) rate constants were determined by processing and fitting the data to a 1:1 binding model using Scrubber 2.0c curve fitting software. Only the dissociation rate (kd) was calculated for the pH4.5 chase experiment. Binding dissociation equilibrium constants (KD) and dissociative half-lives (t½) were calculated from the kinetic rate constants as:

[3] = target: T1, serum resistance-associated protein …; test: SPR, mAb captured, 50 nM SRA, pH 4.5, 25C
[4] = target: T1, serum resistance-associated protein …; test: SPR, mAb captured, pH 4.5, 25C; competitor biotin-apoL1 peptide
[5] = target: T1, serum resistance-associated protein …; test: SPR, mAb captured, 25C, assoc. pH 7.4, dissoc. pH 4.5
Experimental: as §1, §2

SRA.mmh [6] = target: T2, SRA.mmh; test: Octet, mAb-2 at 50 ug/mL on captured SRA.mmh after negative control α-PRLR H1H6800P as mAb-1 (row 32 (-))
[7] = target: T1, serum resistance-associated protein …; test: SPR, 25C, t1/2 pH 7.4 over pH 4.5
Experimental: as §1, §2

SRA.mmh [8] = target: T2, SRA.mmh; test: Octet, SRA.mmh captured on anti-Penta-His tips, mAb-1 at 50 ug/mL for 5 min, 25 C, pH 7.4

Binder | 50 nM SRA + 5 uM mutant apoL1 peptide binding (RU) [1] | % Blocking, Mutant apoL1 peptide [1] | Kd [2] | kon [2] | t ½ [2] | 50 nM SRA binding (RU) [3] | 50 nM SRA + 5 uM apoL1 peptide binding (RU) [4] | % Blocking, apoL1 peptide [4] | t ½ [5] | Binding of mAb-2 to SRA Pre-complexed with mAb-1 (SRA.mmh [6]) | t ½ ratio pH 7.4/pH 4.5 [7] | 50 ug/mL mAb 1 Bound (nm) (SRA.mmh [8])
B1 | 106 RU | -2% | ≤ 0.0814 nM | 614000 M⁻¹ s⁻¹ | ≥ 3.85 h | 104 RU | 84 RU | 19% | 1.75 h | 1.64 | ≥ 2 | 1.45 nm
B2 | 77 RU | 6% | ≤ 0.108 nM | 459000 M⁻¹ s⁻¹ | ≥ 3.85 h | 82 RU | 52 RU | 36% | ≥ 3.85 h | 1.4 |  | 1.72 nm
B3 | 67 RU | 11% | 0.546 nM | 1.6e+06 M⁻¹ s⁻¹ | 0.217 h | 76 RU | -11 RU | 100% | 0.025 h | 1.22 | 9 | 1.25 nm
B4 | 150 RU | 5% | 0.0996 nM | 844000 M⁻¹ s⁻¹ | 2.28 h | 159 RU | -2 RU | 100% | 0.0333 h | 1.28 | 77 | 1.59 nm
B5 | 57 RU | 6% | ≤ 0.095 nM | 526000 M⁻¹ s⁻¹ | ≥ 3.85 h | 60 RU | 45 RU | 25% | 3.32 h | 1.58 | ≥ 1 | 1.59 nm
B6 | 67 RU | 7% | ≤ 0.134 nM | 372000 M⁻¹ s⁻¹ | ≥ 3.85 h | 72 RU | -4 RU | 100% | 0.117 h | 1.28 | ≥ 31 | 1.3 nm
B7 | 92 RU | 4% | ≤ 0.0376 nM | 1.33e+06 M⁻¹ s⁻¹ | ≥ 3.85 h | 95 RU | 118 RU | -24% | 1.4 h | 1.55 | ≥ 3 | 1.5 nm
B8 | 56 RU | 5% | ≤ 0.0786 nM | 636000 M⁻¹ s⁻¹ | ≥ 3.85 h | 59 RU | 57 RU | 4% | 4.05 h | 1.27 | ≥ 1 | 1.44 nm
B9 | 108 RU | 0% | 0.245 nM | 642000 M⁻¹ s⁻¹ | 1.23 h | 109 RU | 42 RU | 61% | 0.0117 h | 1.31 | 109 | 1.27 nm
